Consider three molecules from patent US10544159B2, “Artemisinin derivatives, methods for their preparation and their use as antimalarial agents” (priority 2012, dated 2020).

Where “and” joins values, the source holds several entries; their conditions need not be identical. Equal values may be shown once.

A short description of data set [1]: Total turnovers and regio-/stereoselectivity of P450 variants in artemisinin hydroxylation (analytical scale). The note with it: for TTN: total turnovers on artemisinin, NADPH cofactor regeneration system, analytical scale. In kind it is biochemical. On the procedure: Determination of Total Turnovers and Regio- and Stereoselectivity of the P450 Variants.
After 12 hours, 9-fluorenone was added to the mixtures as internal standard. The hydroxylation products were functionalized with benzoyl chloride followed by HPLC analysis. TTN values were calculated based on the total amount of hydroxylated products in the reactions as quantified based on the calibration curves generated using purified 2-4. The enzyme regio- and stereoselectivity was determined based on the area under the curve of the chromatographic peaks corresponding to the hydroxylation products 2, 3, and 4. Mean and standard deviation values reported for P450 variants in Table 1 were calculated from experiments performed at least in triplicate.

Data set [2] can be described thus: KD for artemisinin binding to P450 variants (heme spin-shift titration). The note with it: binding of artemisinin to 3 μM purified P450, pH 8.0. On the procedure: Determination of KD Values for Artemisinin Binding.
Binding experiments were performed using 3 μM purified P450 in potassium phosphate buffer (50 mM, pH 8.0) by titrating increasing amounts of artemisinin (5 μM to 1 mM) from an ethanol stock solution (50 mM). At each concentration, a difference spectrum from 350 to 500 nm was recorded and binding curves were generated by plotting the change in absorbance at 390 nm and 420 nm corresponding to the high-spin and low-spin state of the enzyme, respectively, against the artemisinin concentration. KD values were calculated using Sigma Plot via non-linear fitting of the experimental binding curves to an equation describing a standard 1:1 binding interaction. Reported mean and standard deviation values were calculated from experiments performed at least in triplicate.

Data set [3] is classed as biochemical. The note with it: 250 μM artemisinin, rates measured over initial 30 seconds. On the procedure: Measurement of Product Formation Rates and Coupling Efficiency.
Initial product formation rates were measured from 1 mL-scale reactions containing 250 μM artemisinin, 0.1-0.5 μM purified P450, and 200 μM NADPH in potassium phosphate buffer (50 mM, pH 8.0) at room temperature. After 30 seconds, the samples were extracted with dichloromethane and subjected to benzoyl chloride derivatization followed by HPLC analysis as described above. Cofactor oxidation rate in the presence of artemisinin was measured by monitoring NADPH depletion at 340 nm (ε=6.22 mM^−1 cm^−1) using 0.1 μM purified P450, 250 μM artemisinin, and 200 μM NADPH. Coupling efficiency was calculated from the ratio between the initial product formation rate and the initial NADPH oxidation rate. Reported mean and standard deviation values were calculated from experiments performed at least in triplicate.

As a reminder, the Kd is the free concentration of one partner at which half of the binding sites on the other are occupied at equilibrium, for simple one-to-one binding.

B1: CYP102A1: naturally occurring wild-type cytochrome P450 CYP102A1 from Bacillus megaterium (SEQ ID NO.: 1) (protein, listed as Bacillus megaterium)
chain: MTIKEMPQPKTFGELKNLPLLNTDKPVQALMKIADELGEIFKFEAPGRVTRYLSSQRLIKEACDESRFDKNLSQALKFVRDFAGDGLFTSWTHEKNWKKAHNILLPSFSQQAMKGYHAMMVDIAVQLVQKWERLNADEHIEVPEDMTRLTLDTIGLCGFNYRFNSFYRDQPHPFITSMVRALDEAMNKLQRANPDDPAYDENKRQFQEDIKVMNDLVDKIIADRKASGEQSDDLLTHMLNGKDPETGEPLDDENIRYQIITFLIAGHETTSGLLSFALYFLVKNPHVLQKAAEEAARVLVDPVPSYKQVKQLKYVGMVLNEALRLWPTAPAFSLYAKEDTVLGGEYPLEKGDELMVLIPQLHRDKTIWGDDVEEFRPERFENPSAIPQHAFKPFGNGQRACIGQQFALHEATLVLGMMLKHFDFEDHTNYELDIKETLTLKPEGFVVKAKSKKIPLGGIPSPSTEQSAKKVRKKAENAHNTPLLVLYGSNMGTAEGTARDLADIAMSKGFAPQVATLDSHAGNLPREGAVLIVTASYNGHPPDNAKQFVDWLDQASADEVKGVRYSVFGCGDKNWATTYQKVPAFIDETLAAKGAENIADRGEADASDDFEGTYEEWREHMWSDVAAYFNLDIENSEDNKSTLSLQFVDSAADMPLAKMHGAFSTNVVASKELQQPGSARSTRHLEIELPKEASYQEGDHLGVIPRNYEGIVNRVTARFGLDASQQIRLEAEEEKLAHLPLAKTVSVEELLQYVELQDPVTRTQLRAMAAKTVCPPHKVELEALLEKQAYKEQVLAKRLTMLELLEKYPACEMKFSEFIALLPSIRPRYYSISSSPRVDEKQASITVSVVSGEAWSGYGEYKGIASNYLAELQEGDTITCFISTPQSEFTLPKDPETPLIMVGPGTGVAPFRGFVQARKQLKEQGQSLGEAHLYFGCRSPHEDYLYQEELENAQSEGIITLHTAFSRMPNQPKTYVQHVMEQDGKKLIELLDQGAHFYICGDGSQMAPAVEATLMKSYADVHQVSEADARLWLQQLEEKGRYAKDVWAG
Turning to B1, the TTN in data set [1] is reported as under 1.

B2: FL#41: CYP102A1-derived engineered P450 variant (SEQ ID NO. 4) (protein)
chain: MTIKEMPQPKTFGELKNLPLLNTDKPVQALMKIADELGEIFKFEAPGRVTRYLSSQRLIKEACDESRFDKNLSQALKFVRDFAGDGLATSWTHEKNWKKAHNILLPSFSQQAMKGYHAMMVDIAVQLVQKWERLNADEHIEVPEDMTRLTLDTIGLCGFNYRFNSFYRDQPHPFITSMVRALDEAMNKLQRANPDDPAYDENKRQFQEDIKVMNDLVDKIIADRKASGEQSDDLLTHMLNGKDPETGEPLDDENIRYQIITFLIAGHETTSGLLSFALYFLVKNPHVLQKAAEEAARVLVDPVPSYKQVKQLKYVGMVLNEALRLWPTAPAFSLYAKEDTVLGGEYPLEKGDELMVLIPQLHRDKTIWGDDVEEFRPERFENPSAIPQHAFKPFGNGQRACIGQQFALHEATLVLGMMLKHFDFEDHTNYELDIKETLTLKPEGFVVKAKSKKIPLGGIPSPSTEQSAKKVRKKAENAHNTPLLVLYGSNMGTAEGTARDLADIAMSKGFAPQVATLDSHAGNLPREGAVLIVTASYNGHPPDNAKQFVDWLDQASADEVKGVRYSVFGCGDKNWATTYQKVPAFIDETLAAKGAENIADRGEADASDDFEGTYEEWREHMWSDVAAYFNLDIENSEDNKSTLSLQFVDSAADMPLAKMHGAFSTNVVASKELQQPGSARSTRHLEIELPKEASYQEGDHLGVIPRNYEGIVNRVTARFGLDASQQIRLEAEEEKLAHLPLAKTVSVEELLQYVELQDPVTRTQLRAMAAKTVCPPHKVELEALLEKQAYKEQVLAKRLTMLELLEKYPACEMKFSEFIALLPSIRPRYYSISSSPRVDEKQASITVSVVSGEAWSGYGEYKGIASNYLAELQEGDTITCFISTPQSEFTLPKDPETPLIMVGPGTGVAPFRGFVQARKQLKEQGQSLGEAHLYFGCRSPHEDYLYQEELENAQSEGIITLHTAFSRMPNQPKTYVQHVMEQDGKKLIELLDQGAHFYICGDGSQMAPAVEATLMKSYADVHQVSEADARLWLQQLEEKGRYAKDVWAG
As to B2, the TTN entry in data set [1] is “about 50”.

B3: IV-H4: FL#62-derived P450 variant (SEQ ID NO. 9), 7(S)-hydroxylating (protein)
chain: MTIKEMPQPKTFGELKNLPLLNTDKPVQALMKIADELGEIFKFEAPGRVTRYLSSQRLIKEACDESRFDKNLSQALKFSRDVAGDGLATSWTHEKNWKKAHNILLPSFSQQAMKGYHAMMVDIAVQLVQKWERLNADEHIEVSEDMTRLTLDTIGLCGFNYRFNSFYRDQPHPFIISMVRTLDEVMNKLQRANPDDPVYDENKRQCQEDIKVMNDLVDKIIADRKARGEQSDDLLTQMLNGKDPETGEPLDDGNISYQIITFLIAGHETTSGLLSFALYFLVKNPHVLQKVAEEAARVLVDPVPSYKQVKQLKYVGMVLNEALRLWPTAPAFSLYAKEDTVLGGEYPLEKGDEVMVLIPQLHRDKTIWGDDVEEFRPERFENPSAIPQHAFKPFGNGQRACIGQQFALHEATLVLGMMLKHFDFEDHTNYELDIKETLTLKPEGFVVKAKSKKIPLGGIPSPSTEQSAKKVRKKAENAHNTPLLVLYGSNMGTAEGTARDLADIAMSKGFAPQVATLDSHAGNLPREGAVLIVTASYNGHPPDNAKQFVDWLDQASADEVKGVRYSVFGCGDKNWATTYQKVPAFIDETLAAKGAENIADRGEADASDDFEGTYEEWREHMWSDVAAYFNLDIENSEDNKSTLSLQFVDSAADMPLAKMHGAFSTNVVASKELQQPGSARSTRHLEIELPKEASYQEGDHLGVIPRNYEGIVNRVTARFGLDASQQIRLEAEEEKLAHLPLAKTVSVEELLQYVELQDPVTRTQLRAMAAKTVCPPHKVELEALLEKQAYKEQVLAKRLTMLELLEKYPACEMKFSEFIALLPSIRPRYYSISSSPRVDEKQASITVSVVSGEAWSGYGEYKGIASNYLAELQEGDTITCFISTPQSEFTLPKDPETPLIMVGPGTGVAPFRGFVQARKQLKEQGQSLGEAHLYFGCRSPHEDYLYQEELENAQSEGIITLHTAFSRMPNQPKTYVQHVMEQDGKKLIELLDQGAHFYICGDGSQMAPAVEATLMKSYADVHQVSEADARLWLQQLEEKGRYAKDVWAG
As for B3, in data set [1] (artemisinin as substrate), the “(S)-stereoselectivity for C7 hydroxylation” value is listed as over 99.9% and the “regioselectivity for C7 hydroxylation” value is listed as over 99.9%. Further, in data set [1] (share of 6a-hydroxy-ART (4), 0.5 mM artemisinin, 0.5-1 μM P450, 12 hours), the “Product distribution (%) 4” value amounted to 0%. For the same molecule, the “Product distribution (%) 3” value in data set [1] (share of 7(R)-hydroxy-ART (3), 0.5 mM artemisinin, 0.5-1 μM P450, 12 hours) was 0%. The “Product distribution (%) 2” value in data set [1] (share of 7(S)-hydroxy-ART (2), 0.5 mM artemisinin, 0.5-1 μM P450, 12 hours) is reported as 100%. Further, the TTN in data set [1] was 362 and 362 ± 15. For the same molecule, the Kd in data set [2] is 53 ± 11 µM. Further, the Product formation rate in data set [3] is 100 ± 4 Mole product per mole P450 per minute.
